The text below walks through data of patent US20250320312A1 (OXITOPE PHARMA B V, published 2025).

Holding throughout (test): scFv ELISA
Experiment [1] has as its target T1, Peptide 4: Biotin-AGGGGSGGGGSGGGGSAAA-Tyr-acid (N-terminal biotin; C-terminal acid).
T1 construct: control peptide without PC
T1 peptide: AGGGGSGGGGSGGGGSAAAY
On the procedure: (§1) For ELISA analysis of scFv binding, 96-well polystyrene plates were coated with Peptide 1, 4, 5, 8 or 100 μL BSA (10 μg/mL) in PBS at 4° C. overnight. Plates were washed three times with PBS-Tween and blocked with 100 μL 1% BSA-TBS for 1 hour at room temperature. 96-well streptavidin coated plates were coated with 100 μL biotinylated PC-peptides (1 μg/mL) in PBS for 1 hour at room temperature.
(§2) All plates were washed three times with PBS-Tween before 40 μL aliquots of PPE were added to assay plates along with 50 μL 10% BSA, and plates were incubated for 1 hour at room temperature. After washing, […] HRP conjugated anti-V5 in 5% BSA was added, and plates were incubated at room temperature for 30 mins. Plates were washed and 100 μL TMB substrate was added. Color was left to develop at room temperature before the reaction was stopped with 100 μL 1N HCl. The amount of scFv bound to each well was quantitated from absorbance measurement at 450 nm (OD450).

In experiment [2] the target is T2, Peptide 8: Biotin-AEAAAKEAAAKEAAAKEAAAKAAA-Tyr-acid (N-terminal biotin; C-terminal acid).
T2 construct: control peptide without PC
T2 peptide: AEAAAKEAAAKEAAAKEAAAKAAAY
On the procedure: as §1, §2

Experiment [3] has as its target Peptide 5: Biotin-…-[Tyr(PC)]-acid.
The target of experiment [4] is Peptide 1: Biotin-…-[Tyr(PC)]-acid.
Experiment [5] addresses BSA (UniProt P02769).

Chain of BSA (P02769 25-607 limits assumed): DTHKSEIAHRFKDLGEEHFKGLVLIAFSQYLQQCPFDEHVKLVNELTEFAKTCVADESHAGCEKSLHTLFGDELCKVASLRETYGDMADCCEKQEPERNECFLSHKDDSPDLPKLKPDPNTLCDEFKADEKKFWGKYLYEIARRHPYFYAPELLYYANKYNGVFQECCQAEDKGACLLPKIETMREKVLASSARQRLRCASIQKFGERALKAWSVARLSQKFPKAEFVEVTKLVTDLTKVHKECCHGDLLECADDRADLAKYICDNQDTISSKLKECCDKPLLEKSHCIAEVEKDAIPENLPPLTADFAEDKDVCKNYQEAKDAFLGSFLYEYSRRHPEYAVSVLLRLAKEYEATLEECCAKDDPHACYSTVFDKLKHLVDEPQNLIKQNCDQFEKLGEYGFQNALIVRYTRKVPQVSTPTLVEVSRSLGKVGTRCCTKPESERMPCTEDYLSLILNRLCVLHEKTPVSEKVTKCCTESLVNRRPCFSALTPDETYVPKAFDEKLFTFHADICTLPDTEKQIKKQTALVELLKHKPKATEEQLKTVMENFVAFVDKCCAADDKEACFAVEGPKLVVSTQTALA

B1: PcOxP_DB01_E04 (scFv, V domains shown)
VH: EVQLLESGGGLVQPGGSLRLSCAASGFTFSDAYMEWVRQAPGKGLEWVAASRNKANDYTTEYADSVKGRFTISRDNSKNTLYLQMNSLRAEDTAVYYCARDYYGSSYWYFDTWGQGTLVTVSS
VL: DIQMTQSPSSLSASVGDRVTITCTASESLYSSKHKVHYLAWYQQKPGKAPKLLIYGASNRYDGVPSRFSGSGSGTDFTLTISSLQPEDFATYYCAQFYSYPLTFGGGTKVEIK
notes: scFv in periplasmic extract
In the case of B1, the OD450 in experiment [1] was determined as 0.05 OD450; in experiment [2], 0.04 OD450; in experiment [3] it was 1.12 OD450; in experiment [4], 0.55 OD450; in experiment [5], 0.07 OD450.

B2: PcOxP_DB01_E05 (scFv, V domains shown)
VH: EVQLLESGGGLVQPGGSLRLSCAASGFTFSDYYMEWVRQAPGKGLEWVAASRNKANDYTTEYADSVKGRFTISRDNSKNTLYLQMNSLRAEDTAVYYCARDYYGSSYWYFDVWGQGTLVTVSS
VL: DIQMTQSPSSLSASVGDRVTITCTASESLYSSKHKVNYLAWYQQKPGKAPKLLIYGASNRYIGVPSRFSGSGSGTDFTLTISSLQPEDFATYYCAQFYQYPLTFGGGTKVEIK
notes: scFv in periplasmic extract
With B2, the OD450 worked out at 0.06 OD450 in experiment [1]; 0.06 OD450 in experiment [2]; 1.39 OD450 in experiment [3]; 0.95 OD450 in experiment [4]; 0.11 OD450 in experiment [5].

B3: PcOxP_DB01_E11 (scFv, V domains shown)
VH: EVQLLESGGGLVQPGGSLRLSCAASGFTFSDFYMEWVRQAPGKGLEWVAASRNKANDYVTEYADSVKGRFTISRDNSKNTLYLQMNSLRAEDTAVYYCARDYYGSSYWYFDVWGQGTLVTVSS
VL: DIQMTQSPSSLSASVGDRVTITCTASFSLYSSKHKVHYLAWYQQKPGKAPKLLIYGASNRYPGVPSRFSGSGSGTDFTLTISSLQPEDFATYYCAQFYYYPLTFGGGTKVEIK
notes: scFv in periplasmic extract
B3: the OD450 was found to be 0.05 OD450 in experiment [1]; 0.06 OD450 in experiment [2]; 0.73 OD450 in experiment [3]; 0.62 OD450 in experiment [4]; 0.09 OD450 in experiment [5].

B4: PcOxP_DB01_F10 (scFv, V domains shown)
VH: EVQLLESGGGLVQPGGSLRLSCAASGFTFSSYYMEWVRQAPGKGLEWVAASRNKANDYTTEYADSVKGRFTISRDNSKNTLYLQMNSLRAEDTAVYYCARDYYGSSYWYFDVWGQGTLVTVSS
VL: DIQMTQSPSSLSASVGDRVTITCTASESLYSSKHKVHYLAWYQQKPGKAPKLLIYGASNGYIGVPSRFSGSGSGTDFTLTISSLQPEDFATYYCAQFYTYPLTFGGGTKVEIK
notes: scFv in periplasmic extract
As to B4, the OD450 in experiment [1] came to 0.05 OD450; in experiment [2], 0.05 OD450; in experiment [3] it was 0.98 OD450; in experiment [4], 0.68 OD450; in experiment [5], 0.09 OD450.

B5: PcOxP_DB01_F04 (scFv, V domains shown)
VH: EVQLLESGGGLVQPGGSLRLSCAASGFTFSSYYMEWVRQAPGKGLEWVAASRNKYNDYTTEYADSVKGRFTISRDNSKNTLYLQMNSLRAEDTAVYYCARDYYGSSYWYFDVWGQGTLVTVSS
VL: DIQMTQSPSSLSASVGDRVTITCTASESLYSSKHKVHYLAWYQQKPGKAPKLLIYGAVNRYIGVPSRFSGSGSGTDFTLTISSLQPEDFATYYCAQFYRYPLTFGGGTKVEIK
notes: scFv in periplasmic extract
With B5, the OD450 was 0.05 OD450 in experiment [1]; 0.05 OD450 in experiment [2]; 0.57 OD450 in experiment [3]; 0.36 OD450 in experiment [4]; 0.09 OD450 in experiment [5].

B6: PcOxP_DB01_E06 (scFv, V domains shown)
VH: EVQLLESGGGLVQPGGSLRLSCAASGFTFSDQYMEWVRQAPGKGLEWVAASRNKANDYTTEYADSVKGRFTISRDNSKNTLYLQMNSLRAEDTAVYYCARDYYGSSYWYFDLWGQGTLVTVSS
VL: DIQMTQSPSSLSASVGDRVTITCTASESLYSSKHKVHYVAWYQQKPGKAPKLLIYGASNRYIGVPSRFSGSGSGTDFTLTISSLQPEDFATYYCAQFYYYPLTFGGGTKVEIK
notes: scFv in periplasmic extract
With B6, the OD450 came to 0.05 OD450 in experiment [1]; 0.05 OD450 in experiment [2]; 1.05 OD450 in experiment [3]; 0.68 OD450 in experiment [4]; 0.09 OD450 in experiment [5].
